Source: paper PMC9482650, “Quantitative fragmentomics allow affinity mapping of interactomes” (Nature Communications, 2022)

T1: HTRA3, P83110
T1 sequence (P83110 354-453, limits assumed, looked up): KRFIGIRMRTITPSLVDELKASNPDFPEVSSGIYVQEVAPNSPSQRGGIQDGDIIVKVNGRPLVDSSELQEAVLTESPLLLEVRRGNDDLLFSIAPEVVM

T2: DFNB31_2, Q9P202
T2 sequence (Q9P202 274-371, limits assumed, looked up): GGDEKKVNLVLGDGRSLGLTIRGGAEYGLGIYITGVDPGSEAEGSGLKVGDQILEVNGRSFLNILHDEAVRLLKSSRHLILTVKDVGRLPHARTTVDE

T3: PARD3B_1, Q8TEW8
T3 sequence (Q8TEW8 196-299, limits assumed, looked up): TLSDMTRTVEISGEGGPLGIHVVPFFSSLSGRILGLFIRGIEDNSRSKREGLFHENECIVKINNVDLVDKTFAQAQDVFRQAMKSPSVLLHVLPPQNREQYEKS

T4: GRIP1_4, Q9Y3R0
T4 sequence (Q9Y3R0 467-571, limits assumed, looked up): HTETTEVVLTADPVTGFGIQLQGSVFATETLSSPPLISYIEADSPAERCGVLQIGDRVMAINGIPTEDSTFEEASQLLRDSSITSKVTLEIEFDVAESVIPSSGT

T5: DLG3_3, Q92796
T5 sequence (Q92796 374-475, limits assumed, looked up): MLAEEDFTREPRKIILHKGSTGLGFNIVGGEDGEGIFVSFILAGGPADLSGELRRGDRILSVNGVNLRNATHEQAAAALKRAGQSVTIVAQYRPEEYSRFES

T6: RHPN1, Q8TCX5
T6 sequence (Q8TCX5 508-602, limits assumed, looked up): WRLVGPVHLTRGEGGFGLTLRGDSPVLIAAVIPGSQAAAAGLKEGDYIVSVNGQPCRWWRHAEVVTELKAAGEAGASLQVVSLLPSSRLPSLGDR

T7: LIN7B, Q9HAP6
T7 sequence (Q9HAP6 88-185, limits assumed, looked up): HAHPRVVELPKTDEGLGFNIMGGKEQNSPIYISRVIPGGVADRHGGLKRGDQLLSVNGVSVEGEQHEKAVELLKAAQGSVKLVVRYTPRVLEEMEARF

T8: PTPN13_1, Q12923
T8 sequence (Q12923 1088-1188, limits assumed, looked up): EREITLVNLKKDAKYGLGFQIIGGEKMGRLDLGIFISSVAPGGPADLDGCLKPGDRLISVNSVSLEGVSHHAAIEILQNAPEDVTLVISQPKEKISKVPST

T9: SYNJ2BP, P57105
T9 sequence (P57105 8-110, limits assumed, looked up): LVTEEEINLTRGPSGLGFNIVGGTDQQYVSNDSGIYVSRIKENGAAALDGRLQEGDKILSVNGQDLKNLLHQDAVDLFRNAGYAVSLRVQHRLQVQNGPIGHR

T10: GRIP1_2, Q9Y3R0
T10 sequence (Q9Y3R0 145-248, limits assumed, looked up): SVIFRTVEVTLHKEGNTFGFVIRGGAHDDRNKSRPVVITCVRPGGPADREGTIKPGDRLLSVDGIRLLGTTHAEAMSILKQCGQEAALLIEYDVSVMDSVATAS

T11: DLG3_2, Q92796
T11 sequence (Q92796 221-321, limits assumed, looked up): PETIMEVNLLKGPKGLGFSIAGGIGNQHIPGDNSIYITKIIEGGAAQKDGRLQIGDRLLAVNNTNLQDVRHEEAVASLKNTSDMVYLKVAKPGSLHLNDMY

T12: MPDZ_10, O75970
T12 sequence (O75970 1624-1722, limits assumed, looked up): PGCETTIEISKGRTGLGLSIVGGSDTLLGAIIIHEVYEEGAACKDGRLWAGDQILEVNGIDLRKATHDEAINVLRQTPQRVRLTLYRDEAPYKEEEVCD

B1: TRPM1, Q7Z4N2 (peptide)
chain: KEKASTETEC
B2: NPSR1, Q6W5P4 (peptide)
chain: MQILSKPEFI
B3: GAS2L2, Q8NHY3 (peptide)
chain: PLPPEEESWV

These binders were tested against DLG2_2, Q15700 (assay: holdup assay). Conditions: plain residues with an end cap or a label only (N-terminal biotin on a linker: ado-ado).
Chain of DLG2_2, Q15700 (Q15700 189-283): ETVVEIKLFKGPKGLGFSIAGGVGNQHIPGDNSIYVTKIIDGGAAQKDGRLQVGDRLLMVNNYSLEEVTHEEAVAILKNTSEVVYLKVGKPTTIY
Set-up: key: below the threshold = too weak to quantify, mostly under pKd 3.1 to 4
In the case of B1, the pKd is reported as 3.52.
With B2 the pKd was “below the threshold”.
In the case of B3, the pKd is reported as 4.19.

The binders below were run against GORASP2, Q9H8Y8 (assay: holdup assay). Conditions: plain residues with an end cap or a label only (N-terminal biotin on a linker: ado-ado).
Set-up: key: below the threshold = too weak to quantify, mostly under pKd 3.1 to 4
B1 was tested, and the pKd was “below the threshold”.
Work on B2 yielded a pKd of 4.61.
Binder B3 has a pKd of 4.48.

What follows are binders tested against TJP1_3, Q07157 (assay: holdup assay). Conditions: plain residues with an end cap or a label only (N-terminal biotin on a linker: ado-ado).
Chain of TJP1_3, Q07157 (Q07157 416-512): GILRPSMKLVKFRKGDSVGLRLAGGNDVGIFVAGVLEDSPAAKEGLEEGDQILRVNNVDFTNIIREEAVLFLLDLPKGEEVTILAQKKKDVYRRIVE
Set-up: key: below the threshold = too weak to quantify, mostly under pKd 3.1 to 4
In the case of B1, the pKd is reported as “below the threshold”.
B2 was tested, and the pKd was “below the threshold”.
In the case of B3, the pKd is reported as 3.63.

The binders below were run against T1, HTRA3, P83110 (assay: holdup assay). Conditions: plain residues with an end cap or a label only (N-terminal biotin on a linker: ado-ado).
Set-up: key: below the threshold = too weak to quantify, mostly under pKd 3.1 to 4
For B1, the pKd was 3.58.
B2 was tested, and the pKd was 4.61.
In the case of B3, the pKd is reported as 5.59.

What follows are binders tested against Inadl_9, Q8NI35 (assay: holdup assay). Conditions: plain residues with an end cap or a label only (N-terminal biotin on a linker: ado-ado).
Chain of Inadl_9, Q8NI35 (Q8NI35 1530-1615): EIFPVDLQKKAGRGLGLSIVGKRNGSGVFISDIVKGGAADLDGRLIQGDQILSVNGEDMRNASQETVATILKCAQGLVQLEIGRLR
Set-up: key: below the threshold = too weak to quantify, mostly under pKd 3.1 to 4
With B1 the pKd was “below the threshold”.
B2 was tested, and the pKd was 3.64.
Work on B3 yielded a pKd of 4.34.

The binders below were run against LAP2, Q96RT1 (assay: holdup assay). Conditions: plain residues with an end cap or a label only (N-terminal biotin on a linker: ado-ado).
Chain of LAP2, Q96RT1 (Q96RT1 other isoform, or with tags, fused parts or gaps): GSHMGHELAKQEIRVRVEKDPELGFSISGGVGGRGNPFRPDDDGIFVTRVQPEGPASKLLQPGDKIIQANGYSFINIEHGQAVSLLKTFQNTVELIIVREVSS
Set-up: key: below the threshold = too weak to quantify, mostly under pKd 3.1 to 4
Work on B1 yielded a pKd of 3.67.
B2 was tested, and the pKd was “below the threshold”.
With B3 the pKd was 5.73.

The binders below were run against T2, DFNB31_2, Q9P202 (assay: holdup assay). Conditions: plain residues with an end cap or a label only (N-terminal biotin on a linker: ado-ado).
Set-up: key: below the threshold = too weak to quantify, mostly under pKd 3.1 to 4
For B1, the pKd was “below the threshold”.
With B2 the pKd was “below the threshold”.
For B3, the pKd was “below the threshold”.

What follows are binders tested against T3, PARD3B_1, Q8TEW8 (assay: holdup assay). Conditions: plain residues with an end cap or a label only (N-terminal biotin on a linker: ado-ado).
Set-up: key: below the threshold = too weak to quantify, mostly under pKd 3.1 to 4
Work on B1 yielded a pKd of 3.97.
For B2, the pKd was 4.09.
Work on B3 yielded a pKd of 3.95.

The binders below were run against T4, GRIP1_4, Q9Y3R0 (assay: holdup assay). Conditions: plain residues with an end cap or a label only (N-terminal biotin on a linker: ado-ado).
Set-up: key: below the threshold = too weak to quantify, mostly under pKd 3.1 to 4
In the case of B1, the pKd is reported as “below the threshold”.
In the case of B2, the pKd is reported as “below the threshold”.
In the case of B3, the pKd is reported as “below the threshold”.

What follows are binders tested against T5, DLG3_3, Q92796 (assay: holdup assay). Conditions: plain residues with an end cap or a label only (N-terminal biotin on a linker: ado-ado).
Set-up: key: below the threshold = too weak to quantify, mostly under pKd 3.1 to 4
For B1, the pKd was “below the threshold”.
With B2 the pKd was “below the threshold”.
For B3, the pKd was “below the threshold”.

These binders were tested against Inadl_10, Q8NI35 (assay: holdup assay). Conditions: plain residues with an end cap or a label only (N-terminal biotin on a linker: ado-ado).
Chain of Inadl_10, Q8NI35 (Q8NI35 1673-1763): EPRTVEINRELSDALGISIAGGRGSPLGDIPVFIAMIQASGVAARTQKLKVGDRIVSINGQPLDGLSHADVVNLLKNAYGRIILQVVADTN
Set-up: key: below the threshold = too weak to quantify, mostly under pKd 3.1 to 4
With B1 the pKd was “below the threshold”.
In the case of B2, the pKd is reported as “below the threshold”.
For B3, the pKd was “below the threshold”.

Each binder was assayed against NHERF4_4, Q86UT5 (assay: holdup assay). Conditions: plain residues with an end cap or a label only (N-terminal biotin on a linker: ado-ado).
Chain of NHERF4_4, Q86UT5 (Q86UT5 464-550): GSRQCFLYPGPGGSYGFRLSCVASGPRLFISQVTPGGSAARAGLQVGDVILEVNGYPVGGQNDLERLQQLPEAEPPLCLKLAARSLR
Set-up: key: below the threshold = too weak to quantify, mostly under pKd 3.1 to 4
B1 was tested, and the pKd was “below the threshold”.
For B2, the pKd was “below the threshold”.
For B3, the pKd was “below the threshold”.

These binders were tested against TJP2_1, Q9UDY2 (assay: holdup assay). Conditions: plain residues with an end cap or a label only (N-terminal biotin on a linker: ado-ado).
Chain of TJP2_1, Q9UDY2 (Q9UDY2 24-128): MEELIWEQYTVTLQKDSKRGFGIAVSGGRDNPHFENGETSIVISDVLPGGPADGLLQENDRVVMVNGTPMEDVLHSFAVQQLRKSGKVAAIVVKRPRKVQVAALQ
Set-up: key: below the threshold = too weak to quantify, mostly under pKd 3.1 to 4
B1 was tested, and the pKd was “below the threshold”.
For B2, the pKd was “below the threshold”.
B3 was tested, and the pKd was 4.4.

These binders were tested against T6, RHPN1, Q8TCX5 (assay: holdup assay). Conditions: plain residues with an end cap or a label only (N-terminal biotin on a linker: ado-ado).
Set-up: key: below the threshold = too weak to quantify, mostly under pKd 3.1 to 4
B1 was tested, and the pKd was “below the threshold”.
In the case of B2, the pKd is reported as “below the threshold”.
B3 was tested, and the pKd was 4.43.

These binders were tested against T7, LIN7B, Q9HAP6 (assay: holdup assay). Conditions: plain residues with an end cap or a label only (N-terminal biotin on a linker: ado-ado).
Set-up: key: below the threshold = too weak to quantify, mostly under pKd 3.1 to 4
For B1, the pKd was 3.77.
For B2, the pKd was 3.81.
B3 gave a pKd of 3.96.

These binders were tested against IL16_1, Q14005 (assay: holdup assay). Conditions: plain residues with an end cap or a label only (N-terminal biotin on a linker: ado-ado).
Chain of IL16_1, Q14005 (Q14005 210-306): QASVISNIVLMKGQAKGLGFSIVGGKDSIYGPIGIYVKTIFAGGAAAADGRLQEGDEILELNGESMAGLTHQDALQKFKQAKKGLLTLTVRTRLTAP
Set-up: key: below the threshold = too weak to quantify, mostly under pKd 3.1 to 4
With B1 the pKd was “below the threshold”.
With B2 the pKd was “below the threshold”.
For B3, the pKd was 5.24.

Each binder was assayed against T8, PTPN13_1, Q12923 (assay: holdup assay). Conditions: plain residues with an end cap or a label only (N-terminal biotin on a linker: ado-ado).
Set-up: key: below the threshold = too weak to quantify, mostly under pKd 3.1 to 4
For B1, the pKd was “below the threshold”.
B2 was tested, and the pKd was “below the threshold”.
With B3 the pKd was “below the threshold”.

What follows are binders tested against T9, SYNJ2BP, P57105 (assay: holdup assay). Conditions: plain residues with an end cap or a label only (N-terminal biotin on a linker: ado-ado).
Set-up: key: below the threshold = too weak to quantify, mostly under pKd 3.1 to 4
With B1 the pKd was 3.83.
In the case of B2, the pKd is reported as “below the threshold”.
In the case of B3, the pKd is reported as 4.98.

Each binder was assayed against NOS1, P29475 (assay: holdup assay). Conditions: plain residues with an end cap or a label only (N-terminal biotin on a linker: ado-ado).
Chain of NOS1, P29475 (P29475 9-101): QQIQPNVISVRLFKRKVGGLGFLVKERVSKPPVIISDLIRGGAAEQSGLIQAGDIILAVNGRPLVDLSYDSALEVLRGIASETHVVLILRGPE
Set-up: key: below the threshold = too weak to quantify, mostly under pKd 3.1 to 4
In the case of B1, the pKd is reported as “below the threshold”.
In the case of B2, the pKd is reported as 3.84.
For B3, the pKd was 4.06.

Each binder was assayed against T10, GRIP1_2, Q9Y3R0 (assay: holdup assay). Conditions: plain residues with an end cap or a label only (N-terminal biotin on a linker: ado-ado).
Set-up: key: below the threshold = too weak to quantify, mostly under pKd 3.1 to 4
For B1, the pKd was “below the threshold”.
In the case of B2, the pKd is reported as “below the threshold”.
Binder B3 has a pKd of 3.8.

These binders were tested against T11, DLG3_2, Q92796 (assay: holdup assay). Conditions: plain residues with an end cap or a label only (N-terminal biotin on a linker: ado-ado).
Set-up: key: below the threshold = too weak to quantify, mostly under pKd 3.1 to 4
With B1 the pKd was 3.92.
Binder B2 has a pKd of 4.18.
For B3, the pKd was 4.64.

These binders were tested against Inadl_5, Q8NI35 (assay: holdup assay). Conditions: plain residues with an end cap or a label only (N-terminal biotin on a linker: ado-ado).
Chain of Inadl_5, Q8NI35 (Q8NI35 673-780): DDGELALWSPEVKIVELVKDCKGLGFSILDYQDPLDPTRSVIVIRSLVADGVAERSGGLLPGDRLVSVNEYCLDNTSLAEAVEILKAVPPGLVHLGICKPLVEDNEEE
Set-up: key: below the threshold = too weak to quantify, mostly under pKd 3.1 to 4
For B1, the pKd was “below the threshold”.
B2 showed a pKd of 3.53.
B3 was tested, and the pKd was 4.29.

The binders below were run against HTRA1, Q92743 (assay: holdup assay). Conditions: plain residues with an end cap or a label only (N-terminal biotin on a linker: ado-ado).
Chain of HTRA1, Q92743 (Q92743 360-477): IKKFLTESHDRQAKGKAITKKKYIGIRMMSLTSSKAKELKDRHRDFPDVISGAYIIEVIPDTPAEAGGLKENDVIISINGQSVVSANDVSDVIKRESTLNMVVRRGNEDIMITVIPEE
Set-up: key: below the threshold = too weak to quantify, mostly under pKd 3.1 to 4
For B1, the pKd was 3.62.
For B2, the pKd was 4.15.
Work on B3 yielded a pKd of 5.14.

What follows are binders tested against DLG4_2, P78352 (assay: holdup assay). Conditions: plain residues with an end cap or a label only (N-terminal biotin on a linker: ado-ado).
Chain of DLG4_2, P78352 (P78352 155-259): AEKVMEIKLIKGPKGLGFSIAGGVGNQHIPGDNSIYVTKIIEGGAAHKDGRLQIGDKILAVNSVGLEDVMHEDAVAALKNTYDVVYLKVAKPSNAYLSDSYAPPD
Set-up: key: below the threshold = too weak to quantify, mostly under pKd 3.1 to 4
B1 showed a pKd of 3.9.
In the case of B2, the pKd is reported as “below the threshold”.
B3 gave a pKd of 4.69.

The binders below were run against T12, MPDZ_10, O75970 (assay: holdup assay). Conditions: plain residues with an end cap or a label only (N-terminal biotin on a linker: ado-ado).
Set-up: key: below the threshold = too weak to quantify, mostly under pKd 3.1 to 4
In the case of B1, the pKd is reported as “below the threshold”.
For B2, the pKd was “below the threshold”.
B3 was tested, and the pKd was “below the threshold”.
